Here are results for 18 sequences from a protein production outcome set (Wang et al. 2014).

The data set is described as follows: label from the status in PepcDB records.

Turning to “MKKEKLFSLLRYIDNGSLECITSLFLITLSLTMPAIGLGNFGIQVIALSMIPLINVRFPVAALPLALVATVWLNAWADHLLLTGFIVYLAVEYATSRGRFALALILGVEWILIAYGVALERPLEAKDSPSLITEILLILVAAGTGAGRWKILSERKQRAITQQEIIKKIRTDIAHYLHDSMARSLAIMIVQSKLTELEPDPKKIQEKLNSIAKIGQEAVADLHQLVRHLVVEESAEKATAFGAWAAVSIHDTVNSAIQLLVDAGHVVSFDSRKKNYKLDHIAETAFALAFNEAVCNAIKHSPPKANVTIRITEKAQSLQILVMNPIGDWHANGESAIPGVGIGVESLTRRIRNIKGQVCVTSLQGYWKVVISLPLKCEDS”, the protein production result is given as “failed”.

For the sequence “MKKFKLSSFLPLSYILLLVLVSPLYDVLNKSTVHAVDVTTVVDDWIPFVKAFIIPYLLWFPYLYGALIYYCFADRKQYYVTLSSVIFGKLACFSIYYFWQTTVPRPTVVGTDVFSELVRYIYSIDQPVNCFPSIHVLTTFVIMLAAFKRREQHAFEYYILTFFGTLIILSTLFTKQHAFLDAVSGMTLASILYFGVQLLLAKEPIKVPVKQNHKM”, the protein production result is “failed”.

With “MKKFVCTVCGYIHEGDAAPAQCPVCKVGADKFEEMKGEMVWADEHRIGVAQGVDAEIIEGLRANFTGECTEVGMYLAMSRQADREGYPEVAEAYKRIAFEEAEHAAKFAELLGEVVVADTKENLRVRVDAEYGATDGKLKLAKRAKELGLDAIHDTVHEMCKDEARHGKAFLGLLNRHFGKLEHHHHHH”, the protein production entry is “not failed”. “MKKGIQPLKWKDVPALAVLGFFSVTLHHLLINTGQQYVTAVASSILSQSIPLFTFIISALLFKEQISFKQWLCILLGLCGAVLVVSGDHGFGMPSPYSLLIVLAAIAWGLYFNLYKKFALNYDALSMMCYIIWFGTLPLLFYSAHLPSEILHATWQANMSVVLLGIFPSAMAYVLWGYVLKNMPLTIASNFLYCSPIVAMSLAVLFLNEKPSIIVLLGGVIIVGSLVWMNWGRKK”: the protein production result is recorded as “failed”. As for “MKKILILFFLLFTVNAFTQNYADYMSSGLDAYARSDWSSALFSFQKAMEVSKNSLDEPLYWLIMANASARNYTVALNDIETFLKRFPNSSKAAEVIYQQGRICCLSAKHDQSINILYGFLRKYPNHRQTASAYYWIGENLYMVGRLKDARTIFSRVIIDYPSSAKVEPSRYKIALIDQASTQDELLKLLKISHEELLKLSEESEKNKKIYEQTIAAYQRQSSDAGGDMRIAELSEQLKMERKHNEELHDQLVMLELKNQELLATLAKMDAKYTSEMAADGETPAADYSDPKAKRAAIEALIKKAKILQSMYNQLLEGNGQ”, the protein production result was “failed”.

For the sequence “MKKILVLGGAHIDRRGMIETETAPGASNPGSWMEEAGGGGFNAARNLSRLGFEVRIIAPRGGDVTGEVVAEAARQAGVEDTPFTFLDRRTPSYTAILERDGNLVIALADMDLYKLFTPRRLKVRAVREAIIASDFLLCDANLPEDTLTALGLIARACEKPLAAIAISPAKAVKLKAALGDIDILFMNEAEARALTGETAENVRDWPNILRKAGLSGGVVTRGASEVVAFNGTEKAILHPPLIREVKDVTGAGDAMASGYLAAIAEGKTIREALRQGAAAAAITVQSSFATSQDLSKDSVEAMLGLVPQAEMLA”, the protein production entry is on record as “not failed”.

In the case of “MKKITKMVISSVLATVLMTACSQSSQNGQSDVKHIGILQYVEHPSLTATRKGFIKELAKEGYKDGKNIKIEYKNAQGDQSNIQSISEKLIKDNKLVLGIATPAAQSLTTVSTETPILFTAVTDPVSAELVKSMKKPEGLATGTSDMSPIKKQVSLLRKVMPKVKRVGIMYTTSERNSEVQVKQAKKIFQEAGIKTSVKGISSTNDVQDTAKSLMSKTEVIFVPTDNIIASSVTLLGNLSKELKVPVVGGSADMVPSGLLFSYGADYEALGRQTARQAVKILKGKDVAKVPSEYPQNLKVVVNEDMAKELGIDVSSIKNNK”, the protein production result is reported as “failed”.

As to “MKKIYIILLILFVILISLIGASILLVMSLSGENVDLFGGEKIAKVYLCNEIYFDYNQGDGIFPQQKKDARYYINLLDDLEKDDSVKGVLLVVNSPGGEVIASEKLARKVEELAKKKPVVVYVEGLDASGAYMVSAPADYIVAEKHSIVGSIGVRMDLMHYYGLMKKLGINVTTIKAGKYKDIGSPFRPMTKEEKEYLQKMINETYMDFVKWVAEHRHLSINYTLKIADGKIYSGEDAKKVGLVDEVGTEEDALKKLEQLANVSNPEIVEYGLEENKGLFGLTYYLGYGIGKGIGEVLYGMEKINGRVELLSLEHHHHHH”, the protein production result is listed as “failed”. For the sequence “MKKKKVIASIVAVCFSLALLSTWVMIFGCMKRGEQELHANTSVEIPDMSSIPGCVQNGGQLMYRGNIYKYDPANINILFMGIDARGEDESIGQADMLALVVINTEKDTVKCICINRDSIGPVAIYDISGKAATTKNVQIALAYSYGKSQSEGRGLEMNTVSKLLHGIPIHGSVSVDIDGIGGINELAGGITLTALEDVPKAGIVKGEEVTLNDEQAMYYVTERDSASTDIGTNENRMSRQKQYISAWCDAVQQQIKKNPFKIFKMYDSVQGYVDTDISRNSMLYLAKVLKRVQFGEGDIYTVSGDYERENYYDKYLIDEDKLTEMMIETFYRKTE”, the protein production result is given as “failed”. As to “MKKKLLNYLILLACLATVSVSCSGSAQAAVLGDDYPFSWKYGGFGVDPWTMYWRQCTSFAAYRLSNTNGFTLPIGYGNAITWGNIARANGHRVDMNPAVGSIAWFSAGVNGAGHMGHVAWVAEVHGDQVTIEEYNYDAGQGPEKYHKRSFHKSQVSGYIHFKDLESGTQNGNPTNSSIKVGDSVRFTGTFRVTSVSGNTITSQDLAGGTPTKHNIVDPSPVLEVDAQGNPTSDQYLNPGETFTIPGNFKVLAIDPPSDGILVQIGNLKTWVTQSVLEKILEHHHHHH”, the protein production result was “not failed”.

In the case of “MKKKSLIILSIIVLIFVCITLYLTREHIMVFYKLITNGEVVKSYLERFGPWAAVIFFVFQILQVVIFFIPGEVIQAAGGYIFGALGGTLLSFFGIAVGSAILFYICQKFGKKLVQRFVPKDMYDKLEKILNSPKFKLILVILFFLPGAPKDSLIMVCALSNITIGHFIIFSMIGRIPALVASSFMGANLAEGNIVGVIIIGVIALIACALGVIFRKDVFKYMEKL”, the protein production entry is “failed”. As for “MKKLFFIFLGSCTFALGTLGIFLPLLPTTGFYLLTAFFWMRSSDKLYNKFLASSYYQKYIQEAFFEKKITRKGKWKLFISMFLLFAIPCLIVRNTLMTTTLAIVYLAHVIGLSWYWRPKKKALELDQE”, the protein production result is reported as “failed”. The entry for “MKKLFPLLLLILSILVGCGKKEKHSVTEIAREKKRITALLYEKELPTDSVKQLYENSVQNKNLVGQMLFAIEVGKRMRNMSQYTDAMLYHQKGLNAALNLRDTIVAAQAWNHLGTDSRRIGALAEASDYHYKALSLIESFSGNQNRPAIKARSAALNGIGNINLELGYHDEAEKNFLKALQGEKELDSPLGQAINYANLGRIYRQRKEYDKARTYFLLSLEQNNMAENLMGIGLCSINLGEVDEEKGDYQKALQEYATAYKLMEQLSDRWHWLNSCIPMARINLKQGNERLYQHFISLAEGTAKEINSTSHLIEIYNLQYENLERKKEYKQALEAFCLSKTLSDSMSIAHKVSSIQETRFNYERNKSQKELEEIQQVSKAKQEKSKFILLSTLFALFISILLISVLTYAYRQGKKHNKLIKETDKLRSGFFTGITHEFRTPITVIQGLNEKMSSSPDLQASDRTELHKIIDRQSSHMLNLVNQLLDICKIRSGVSTPEWRNGDIVSFVQILIDSFAPYAQAQDITLELQPESKPIVVDFVPSYLQKIISNLLSNAIKYSLAGGRVVISLAKTKNEKNLIIRVADNGIGIDKTDQAHIFDIFYRGQSATEKHGSGVGLSFTNILVENLRGTIKVESQPGKGSAFTISIPTQNQSSSAEILPWLPSSDDIVMPVHIAPDDSPTSPMVAALNHRFEDERPTILLVEDNKDINLLVKLLLCDRYNVLSAANGKEGIALATEHIPDIIITDIMMPIMDGIEMTIRMKQSPLLCHIPIVALTAKSTEQDRLEGIKSGVVSYLCKPFSPEELLMRIEQLLKDRELLKKFYMQKLMLDRKPEEEPQPIDDSSMQFLLAAKDAVSGGIKQNPDFSAQDLAEKMCMSPSQLNRKLTSVVGCSTIGYIQQIKIKLACKLLADESKNISDISIEAGFSDPAYFSRTFKRYMNCSPSQYRQKLLAMPGSDKETV” is “failed”; for “MKKLILSALVLGGAMTFTAQAQNKAAEPAEEFFLEGRAMFIRQNYVGALDQFRLYRLHVGQEHALEVDYYSIIADYLLGADHDYVLSAVGNFLDNFPESIDKSRVRLLTGELMIRHEQYLRANTIFSDIDDRTLNDEDLAAYLLYYAYVRMQLSESNALAEQMLLKASESRGELGGRACLLLAAIQIEDGRIDEAEQTLSRLKNRPQFADEADAYIAEIQLLRGDYREAAEIADRLLSRNSPMRQRPQLLRVAGNAYYRLGDSNKTIDYLSDYSEKVGDRIAPADAYALGVTYYKQGLMKEALRPLAAATTDAGSLGAESALYLGQAQLAEGMTSEALMAFEKAATQDVNRPVREVGMYNMAMLMRSTGQSSFGQSVRIAENFLNEFPRSSHREQMAAILVESYFTGKDYNSSLRSIQKIAQPTASILAAKQFVLNRMAEQKEAAGYDSEALSFVSSSISMGNKGEYFPEAYFLRGNLRYRAGDFPTAAADYRAYISAAGDRDAANLPLGYYRLGYSLFNAERYDMALEAFKEYVSRSGIAPNLSADAYARIGDCRYMKRDFHGAREAYSMAYRVYPSGGDYALLRRARLEGLAKQYADQIQTLDKLIREFPDSRHLTAALYEKGCGAVLSGKHNVAEEAFNAVVKRSPDSREARQSSLQLGLLYYNTGRTKEAIRTYQRIIDRYPRSEETTVALSDLRSIYLEEDRIDEYSTYVRGLKDKVSIAPSETEQLGFLSAERKYRRRQPDARRDLEAYLERYPQGSDRHKAELYLADLDYQAGNADAAYNRYSRLVNSPGLPEDYKIDARLRLGRMQYERKEYKAALQSFQSVLDTDGAEAVRDQAVQGVTESAYADKDYRRVIDVIAGLKNQAALPHTLRLYRAKSYQALKMNREAIADYELLAEDFSTATGAEAVVMQAQLEMEAKRLSKAKSILEKFIAKSTPQQYWLARGFILLSDIYKKEGDTFTARQYLESLEKNYPNHEDDIHEQIAQRLE” it is “failed”; for “MKKLLFAIDDTEACERAAQYILDMFGKDADCTLTLIHVKPEFMLYGEAVLAAYDEIEMKEEEKAKLLTQKFSTFFTEKGINPFVVIKEGEPVEMVLEEAKDYNLLIIGSSENSFLNKIFASHQDDFIQKAPIPVLIVK” it is “not failed”. As for “MKKLLTLFCLMLGLSSTQALAAADNPVELIKDGSRQVLDVLKQDNGKNTKQVRQQAEAIAVPLFDFPRMTALAVGLGWRQATPEQRNELTQQFQTLLVRTYSTTMTRFKTAQVSVQPNPVSGANGKDVTVKSSVTLPGNANPVAVDYVLNKGDKGWKIYNVSVEGASLVTVYRNSFNEEIRKNGVDGLIKLLQDKNAAPAPAAASAAKGKGLEHHHHHH”, the protein production result is listed as “failed”.

Regarding “MKKLNSKGIRLSELMEKWRRRKKGHFAVYTNEGKRFVLPLDYLNHPMLQVLLQMAEDEFGTTIDGPLKVPCDGSLMDHIIMLVRRSMSHDYDDVEKSSTSSTCKGASISSLFRGQSQLQSLVS”, the protein production result is “failed”. For “MKKLNTNKLTEEQVNLFKNNLVYLATVDADGNPQVGPKGSMTVLDPSHLQYLEKTKGEAYENIKRGSKVALVAADVPSHTAVRVLATAEVHEDDDYAKKVLAKTEFPNAFVVNLNIEEVFA”, the protein production result is listed as “not failed”.
